Assay: soluble on expression in E. coli; label from the status in PepcDB or PDB records

Sequence	soluble on expression in E. coli
MLGLLRRLFDNNEREIARYYKQVVEPVNRLEAEVEKLPDLAAAYRELKEKHEKGASLDELLPMAFALTRESAKRYLGMRHFDVQLIGGAVLHEGKIAEMKTGEGKTLVATLAVALNALTGKGVHVVTVNDYLARRDAEWMGPVYRGLGLSVGVIQHASTPAERRKAYLADVTYVTNSELGFDYLRDNMAISPDQLVLRHDHPLHYAIIDEVDSILIDEARTPLIISGPAEKATDLYYKMAEIAKKLERGLPAEPGVRKEPTGDYTVEEKNRSVHLTLQGIAKAEKLLGIEGLFSPENMELAHMLIQAIRAKELYHRDRDYIVQDGQVIIVDEFTGRLMPGRRYGEGLHQAIEAKEGVRIERENQTLATITYQNFFRLYEKRAGMTGTAKTEEKEFQEIYGMDVVVVPTNRPVIRKDFPDVVYRTEKGKFYAVVEEIAEKYERGQPVLVGTISIEKSERLSQMLKEPRLYLPRLEMRLELFKKASQKQQGPEWERLRKLLERPAQLKDEDLAPFEGLIPPKGNLRTAWEGLKRAVHTLAVLRQGIPHQVLNAKHHAREAEIVAQAGRSKTVTIATNMAGRGTDIKLGGNPEYLAAALLEKEGFDRYEWKVELFIKKMVAGKEEEARALAQELGIREELLERIREIREECKQDEERVRALGGLFIIGTERHESRRIDNQLRGRAGRQGDPGGSRFYVSFDDDLMRLFASDRVIAMLDRMGFDDSEPIEHPMVTRSIERAQKRVEDRNFAIRKQLLQFDDVLSRQREVIYAQRRLILLGKDEEVKEAAIGMVEETVASLAENFLNPEVHPEDWDLEGLKATLLDTAPQLQDFPFAELRALKAEEAVERLVEAALKAYEAREAELSPPLMRAVERFVILNVVDNAWKEHLHNLDVLRQGIFLRGYGQKDPFQEYKIEATRLFNEMVAFIKSEVAKFLFRLKVEAEPVRPVREAPYVPVPEAKPEPSEVFGVERKRATPPPQPGLSRAERRRLMRQEKKRKK	soluble
PSIKSGTILHAWNWSFNTLKNNMKDIHDAGYTAIQTSPINQVKEGNKGDKSMGNWYWLYQPTSYQIGNRYLGSEEEFKEMCAAAEEYGVKVIVDAVINHTTSDYAAISNEIKSISNWTHGNTQIKNWSDRWDVTQNSLLGLYDWNTQNTQVQSYLKRFLERALNDGADGFRYDAAKHIELPDDGNYGSQFWPNITNTSAEFQYGEILQDSASRDAAYANYMNVTASNYGHSIRSALKNRNLSVSNISHYASDVSADKLVTWVESHDTYANDDEESTWMSDDDIRLGWAVIASRSGSTPLFFSRPDGGGNGVRFPGKTQIGDRGSALFEDQAIVAVNTFHNVMAGQPEELSNPNGNNQIFMNQRGSKGVVLANAGSSSVSINASTKLPDGSYDNKAGTGSFQVRDGKLTGTINARSVAVLYPD	soluble
METSKEFEFRPAKETSRSKSPGGIVGRLSNFARNKARHSLSEKGSNSVGGSGGAGFDKPRKDLLKEFHKCKEAQDQRLDLSSIEITSIPSPIKELTQLTELFLYKNKLTCLPTEIGQLVNLKKLGLSENALTSLPDSLASLESLETLDLRHNKLTEVPSVIYKIGSLETLWLRYNRIVAVDEQIGNLSKLKMLDVRENKIRELPSAIGKLTSLVVCLVSYNHLTRVPEEIGDCHSLTQLDLQHNDLSELPYSIGKLVNLVRIGIRYNKIRCIPSELESCQQLEEFIVESNHLQLLPPNLLTMLPKIHTVNLSRNELTAFPAGGPQQFVSTVTINMEHNQISKIPIGIFSKATRLTKLNLKENELVSLPLDMGSWTSITELNLSTNQLKVLPEDIEKLVNLEILVLSNNQLKKLPNQIGNLNKLRELDLEENELETVPTEIGFLQHLTKLWVQSNKILTLPRSIGNLCSLQDLRLGENNLTAIPEEIGHLDSLKSLYLNDNSSLHNLPFELALCQSLEIMSIENSPLSQIPPEITAGGPSLVIQYLKMQGPYRGVVMNSQ	not soluble
MITCGQVSSSLAPCIPYVRGGGAVPPACCNGIRNVNNLARTTPDRQAACNCLKQLSASVPGVNPNNAAALPGKCGVSIPYKISASTNCATVK	soluble
MSLKIHGLIDAPFTPFYENGEVNYEPIEAYCQLLVRNGLQGVFINGSSGEGYMLTEDERMKLAERWMEVAPEGFKVIVHVGSTCVKSSKRLAEHAQKIGAWGIGAMAPPFPKVGRIEELVKYCEEIACGAPALPFYFYHIPAFNGAFLSMVAFLEAVDGRIPNFAGIKYTFESLYEYNQCRLYKNGKFDMLHGQDETILPCLAMGGAQGGIGGTTNYNGKELTGIIEAWKAGDLELARERQNFAQEVINVICHYRGNIVGGKRIMKLIGLDLGKNRTPFQNMTDEEEAAMKAELEAINFFEREGHHHHHH	soluble
MCIAAWVWQAHPQHQLLLLLNRDEFHSRPTKAVGWWGEGSKKILGGRDVLGGGTWMGCTKDGRLAFLTNVLEPDAMPGARTRGDLPLRFLQSNKSPLEVATEVAKEADEYNGFNLVLADLTTNVMVYVSNRPKGQPATIQLVSPGLHVLSNARLDSPWQKAIRLGKNFREHLRKHGDDEVEAKDIVERLMTDTTKADKDRLPNTGCDPNWEHGLSSIFIEVQTDQGLYGTRSTAVLSVNYDGEASLYEKYLESGIWKDHTVHYQIE	soluble
MFAHQNASFPPRPEGRGGKEAVFRLTVFCIITFSSLICEAMKRAYKYRFYPTTEQAELLAQTFGCVRFVYNSILRWRTDAYYERKEKIGYLQANARLTALKKEPEFAWLNDVSCVPLQQSLRHQQTAFANFFAGRAAYPAFKSKRHKQAAEFTASAFKYRDGKLYMAKNKIPLDVRWSRPLPSVPSTVTISKDAAGRYFVSCLCEFEPASLPITSSMVGIDVGLKDLFVTDTGFRSGNPRHTAKYAARLALLQRRLSKKAKGSKNRAKAHLKVARLHAKIADCRLDALHKATRKLINDNQVVCVESLKVRNMIRNPSLSKAIADASWGELVRQLRYKGEWAGRSVVAIDQFFPSSKRCSCCGFIMKKMPLDVRKWQCPECGTDHDRDVNAARNIKAAGLAVLAHGEPVNPESLKAALEHHHHHH	not soluble
MNQKLKVAIIGSGNIGTDLMIKVLRNAKYLEMGAMVGIDAASDGLARAQRMGVTTTYAGVEGLIKLPEFADIDFVFDATSASAHVQNEALLRQAKPGIRLIDLTPAAIGPYCVPVVNLEEHLGKLNVNMVTCGGQATIPMVAAVSRVAKVHYAEIVASISSKSAGPGTRANIDEFTETTSKAIEVIGGAAKGKAIIIMNPAEPPLIMRDTVYVLSAAADQAAVAASVAEMVQAVQAYVPGYRLKQQVQFDVIPESAPLNIPGLGRFSGLKTSVFLEVEGAAHYLPAYAGNLDIMTSAALATAERMAQSMLNA	soluble
MGSDKIHHHHHHMVNSLTTPEPQTLKPGVKAPVQETLLTPRFYTTDFDAVANLDISANEAEIRAVVEELRADYNRHHFVRDEEFKQSWDHITGEKRRAFIDFLERSCTSEFSGFLLFKELSRRIKSRNPLLAEAFEFMARDEARHAGFLNKSMSDLNLSLDLNYLTKNRTYTFFPPEWVIYTVYLSEKIGYWRYILVHQHMQEHPEYQFYPLFRKFESWCQDENRHGDFFKALLRSQPQLWKNWKARLWVRFFLLTVFVTHTMTVFERASFYESIGIHPRKYNNRVIQETNNTSARAFPLILNTNHPLFFWRLEQCWENNMKLAAIKNNKLPNFVKFFQRIPPATAIFWNMLRLFLIKPIDTEATRGTVL	not soluble
MAHHHHHHMTDPTRRDPTEFLRVLRRMSNTTSWQKAMIFASKGRMVGYRLTLEHYNTVLYSQSMWGRALEMIKVIRAMQQDGVQPNGATYYYIVNGMANAEHGYNYDFNINHRLEKLQHWRVALNALQACEANGFDSTDTMHNSVIVTMTIPGMNHWREALQVLKKIIDEDRQLHPNMVRFLHDCLIRNYRPREASDLLRCAAERGVKGYETAWETDVYKGKPTDAQLEASQAEAAVTDAAGTECVAGSSGALSSSTSDCKKAAHNSAQASAAATLMALQLRGDQTLPPPQMRSALQEEMERSITAERQALRPFTAGLHYTEMRSVFRPRVHRQLWYQWHQIANRYRPTASLKRRQLAPRDSPTGIPAWNRL	not soluble
QIAPLFWLENTIEKVEGMRPYTPLEMAGREVYIREGCYVCHSQMIRPMRDEVERYGHYSLAAESMYDHPFQWGSKRTGPDLARVGGRYSDDWHVDHMRDPQSVVPESVMPKYGYLERTMIDGKYIGDLMAANAIVGVPYTDEMIEAAQADFAAQADPDSDYDGLLERYGDKVNVRNFDGQPGVSEADALIAYLQMLGT	not soluble
VGEKITKMKEESHKTKQTKTEDPITKETYQARQRTLLQRDYLLVHIEDLLPKQVFAVSVINDYLVCIQAQGLEPMSDVGLLGKHQFYLRTYHYFV	not soluble
LDRQTERLQQGEVDVRFNMVSRMLDHPDLAERWPHLQGKLDNLSQEYELIRFWIDSDDPRYHYGRFSEPVQRLIADGAGRYELELPEHRYALTARVGVLPAREGRPRLTYVTAIDSAAFHEARTSTLKW	not soluble
MGSDKIHHHHHHMKVCVGIIGLGRIGHRFGISPQGDPLSHSEGYAQIPNVTVVLGVDPDPEACKNFLQRFSQAQVYSSLKDVPDGLHLEVVSVCSPTHLHAQGVIAALAWRPRVILCEKPLAVNVAEAEIMLAACSAQGCILITNYSRRWTPMLQALKNLTNQDDGLGTPIGACLRYNGGLLHNGTHWIDMLLALFGSVSCTYRLEKLSVAQDDAAESIALSWNSGLTAYLIAVRGTGCSIGEGELWGTGGMLRYSAGGGQVTWQTAQPSQWSGFQELDQAKIICEAGLKGHILGAVTEAVQLAKIGGQPTCSGADGVLALQVVEMARNNKFLIK	not soluble
MGSDKIHHHHHHMIKVGQTTEVENFLSNHPEVEAIDVLISDLVGFARGKRIEKSSLEKIYSSGLNMPATIFSMNVLGETIEECGLGQDIGEPDMVCKPIANTLHMASWHDRPIAQVLMSMFNHDGTPFFADPRNILSNVVRQLAEINLYPVVAVELEFYLLDKNKDNKGNLQAPISPKTGKRDEHTQVYSVDTLNDYSALLDDINRVCIEQNVPADTAVAECAPGQFEINLKHEADPVAACDNAILLKRIIKTVADKHNFDATFMAKPYSNEAGSGMHVHASLLDECGNNVFADEHNDYNETLEHAIGGMLELMPASMPLLCPNVNSYRRFMPGYYVAMAKNWGVDNRTVALRLPRGHKNATRIEHRVSGADANPYLVMAVILASIHHGITNKIKPINPTVGNAFDDDCEALPLKLDRALAELEKDQILTSYLGEEFTKNYHTVKQKELEQFDMHISELEVKWYLSNS	not soluble
GMSRAPDTWILTADCPSMLGTVDVVTRYLFEQRCYVTEHHSFDDRQSGRFFIRVEFRQPDDFDEAGFRAGLAERSEAFGMAFELTAPNHRPKVVIMVSKADHCLNDLLYRQRIGQLGMDVVAVVSNHPDLEPLAHWHKIPYYHFALDPKDKPGQERKVLQVIEETGAELVILARYMQVLSPELCRRLDGWAINIHHSLLPGFKGAKPYHQAYNKGVKMVGATAHYINNDLDEGPIIAQGVEVVDHSHYPEDLIAKGRDIECLTLARAVGYHIERRVFLNANRTVVL	soluble
MSLKKLILTTAALALSAGMAMADTVRMGTEGAYPPYNFINDAGEVDGFERELGDELCKRAGLTCEWVKNDWDSIIPNLVSGNYDTIIAGMSITDERDEVIDFTQNYIPPTASSYVATSDGADLSGIVAAQTATIQAGYIAESGATLVEFATPEETIAAVRNGEADAVFADRDYLVPIVAESGGELMFVGDDVPLGGGVGMGLRESDGELRGKFDAAITSMKEDGTLNTMIKKWFGEDAAVYEEGHHHHHH	soluble
MGSDKIHHHHHHMKRNTAQLKEKLIQTGVEEIKKNGLDQLSLRTIAKNCGVTHGTPYRHFKSKEDYLRVVLTRLSTFLNQEIAQGIDQKVSARDQLAQMGFNLITFTKRYPYFFEALFIKFPFKYMKITQETIVLDSDLPGFDKFKRIVFDLRKEESFTNSEAETLFHFWSFISGLAVLANSPIGRDLDNQAIHTTINHMLDIYIKGEQT	not soluble

— the DeepSol protein solubility set
